The text below walks through data of PMC7398979.

Assay [1] addresses sulfur oxygenase reductase from Sulfurisphaera tokodaii (Sulfurisphaera tokodaii strain 7). Description: cryo-EM structure; single particle analysis, 10 mg/mL in 20 mM Tris-HCl pH 8.0, 150 mM NaCl; sample partially purified (heat treatment, gel filtration); 200 kV Talos Arctica; octahedral symmetry imposed, 2.24 Å (C1: 2.73 Å).
The target is the same in assay [2]. Description: SEC; gel filtration on HiLoad 16/600 Superdex 200 pg; standards thyroglobulin (669 k), pyruvate kinase (237 k), ovalbumin (44 k), RNaseA (14 k); peak at 539 kDa.
For assay [3] the target is unchanged. Description: crystal structure; sitting drop at 20 °C, 1.2 M ammonium sulfate, 100 mM MES-NaOH pH 6.1, 4% dioxane; space group I23, 8 monomers per asymmetric unit; 1.73 Å.

For the substance “sulfur oxygenase reductase from Sulfurisphaera tokodaii (enzyme)”, the stoichiometry N in assay [1] was 24; in assay [2], 15 to 16; in assay [3], 24.
